Legend:
Conditions in all cases: Homo sapiens
[1] = compound: Cc1ccc(Cc2ccc(-c3csc(N)n3)cc2)cc1; experiment: (§1) Activation of N-terminal (His)6 and Xpress-tagged LTA4H (unknown origin) expressed in Escherichia coli BL21(DE3) cells assessed as increase in aminopeptidase activity by measuring Km for p-nitroanilide release at 1 uM using L-Alanine-p-nitroanilide incubated for 10 mins by UV plate reader based assay
[2] = compound: Nc1nc(-c2ccc(Cc3ccc(C(F)(F)F)cc3)cc2)cs1; experiment: as §1
[3] = compound: Nc1nc(-c2ccc(Cc3ccccc3)cc2)cs1; experiment: as §1
[4] = compound: COc1ccc(Cc2ccc(-c3csc(N)n3)cc2)cc1; experiment: (§2) Activation of N-terminal (His)6 and Xpress-tagged LTA4H (unknown origin) expressed in Escherichia coli BL21(DE3) cells assessed as increase in aminopeptidase activity by measuring Km for p-nitroanilide release at 5 uM using L-Alanine-p-nitroanilide incubated for 10 mins by UV plate reader based assay
[5] = compound: COc1ccc(Cc2ccccc2)cc1; experiment: as §2
[6] = compound: Cc1ccc(Cc2ccc(-c3csc(N)n3)cc2)cc1; experiment: as §2
[7] = compound: Nc1nc(-c2ccc(Cc3ccc(C(F)(F)F)cc3)cc2)cs1; experiment: as §2
[8] = compound: Nc1nc(-c2ccc(Cc3ccccc3)cc2)cs1; experiment: as §2
[9] = compound: COc1ccc(Cc2ccc(-c3csc(N)n3)cc2)cc1; experiment: (§3) Activation of N-terminal (His)6 and Xpress-tagged LTA4H (unknown origin) expressed in Escherichia coli BL21(DE3) cells assessed as increase in aminopeptidase activity by measuring Km for p-nitroanilide release at 10 uM using L-Alanine-p-nitroanilide incubated for 10 mins by UV plate reader based assay
[10] = compound: COc1ccc(Cc2ccccc2)cc1; experiment: as §3
[11] = compound: Cc1ccc(Cc2ccc(-c3csc(N)n3)cc2)cc1; experiment: as §3
[12] = compound: Nc1nc(-c2ccc(Cc3ccc(C(F)(F)F)cc3)cc2)cs1; experiment: as §3
[13] = compound: Nc1nc(-c2ccc(Cc3ccccc3)cc2)cs1; experiment: as §3
[14] = compound: COc1ccc(Cc2ccc(-c3csc(N)n3)cc2)cc1; experiment: (§4) Activation of N-terminal (His)6 and Xpress-tagged LTA4H (unknown origin) expressed in Escherichia coli BL21(DE3) cells assessed as increase in aminopeptidase activity by measuring Kcat/Km ratio for p-nitroanilide release at 0.1 uM using L-Alanine-p-nitroanilide incubated for 10 mins by UV plate reader based assay
[15] = compound: COc1ccc(Cc2ccccc2)cc1; experiment: as §4
[16] = compound: Cc1ccc(Cc2ccc(-c3csc(N)n3)cc2)cc1; experiment: as §4
[17] = compound: Nc1nc(-c2ccc(Cc3ccc(C(F)(F)F)cc3)cc2)cs1; experiment: as §4
[18] = compound: Nc1nc(-c2ccc(Cc3ccccc3)cc2)cs1; experiment: as §4
[19] = compound: COc1ccc(Cc2ccc(-c3csc(N)n3)cc2)cc1; experiment: (§5) Activation of N-terminal (His)6 and Xpress-tagged LTA4H (unknown origin) expressed in Escherichia coli BL21(DE3) cells assessed as increase in aminopeptidase activity by measuring Kcat/Km ratio for p-nitroanilide release at 0.5 uM using L-Alanine-p-nitroanilide incubated for 10 mins by UV plate reader based assay
[20] = compound: COc1ccc(Cc2ccccc2)cc1; experiment: as §5
[21] = compound: Cc1ccc(Cc2ccc(-c3csc(N)n3)cc2)cc1; experiment: as §5
[22] = compound: Nc1nc(-c2ccc(Cc3ccc(C(F)(F)F)cc3)cc2)cs1; experiment: as §5
[23] = compound: Nc1nc(-c2ccc(Cc3ccccc3)cc2)cs1; experiment: as §5
[24] = compound: COc1ccc(Cc2ccc(-c3csc(N)n3)cc2)cc1; experiment: (§6) Activation of N-terminal (His)6 and Xpress-tagged LTA4H (unknown origin) expressed in Escherichia coli BL21(DE3) cells assessed as increase in aminopeptidase activity by measuring Kcat/Km ratio for p-nitroanilide release at 1 uM using L-Alanine-p-nitroanilide incubated for 10 mins by UV plate reader based assay
[25] = compound: COc1ccc(Cc2ccccc2)cc1; experiment: as §6
[26] = compound: Cc1ccc(Cc2ccc(-c3csc(N)n3)cc2)cc1; experiment: as §6
[27] = compound: Nc1nc(-c2ccc(Cc3ccc(C(F)(F)F)cc3)cc2)cs1; experiment: as §6
[28] = compound: Nc1nc(-c2ccc(Cc3ccccc3)cc2)cs1; experiment: as §6
[29] = compound: COc1ccc(Cc2ccc(-c3csc(N)n3)cc2)cc1; experiment: (§7) Activation of N-terminal (His)6 and Xpress-tagged LTA4H (unknown origin) expressed in Escherichia coli BL21(DE3) cells assessed as increase in aminopeptidase activity by measuring Kcat/Km ratio for p-nitroanilide release at 5 uM using L-Alanine-p-nitroanilide incubated for 10 mins by UV plate reader based assay
[30] = compound: COc1ccc(Cc2ccccc2)cc1; experiment: as §7
[31] = compound: Cc1ccc(Cc2ccc(-c3csc(N)n3)cc2)cc1; experiment: as §7
[32] = compound: Nc1nc(-c2ccc(Cc3ccc(C(F)(F)F)cc3)cc2)cs1; experiment: as §7
[33] = compound: Nc1nc(-c2ccc(Cc3ccccc3)cc2)cs1; experiment: as §7
[34] = compound: COc1ccc(Cc2ccc(-c3csc(N)n3)cc2)cc1; experiment: (§8) Activation of N-terminal (His)6 and Xpress-tagged LTA4H (unknown origin) expressed in Escherichia coli BL21(DE3) cells assessed as increase in aminopeptidase activity by measuring Kcat/Km ratio for p-nitroanilide release at 10 uM using L-Alanine-p-nitroanilide incubated for 10 mins by UV plate reader based assay
[35] = compound: COc1ccc(Cc2ccccc2)cc1; experiment: as §8
[36] = compound: Cc1ccc(Cc2ccc(-c3csc(N)n3)cc2)cc1; experiment: as §8
[37] = compound: Nc1nc(-c2ccc(Cc3ccc(C(F)(F)F)cc3)cc2)cs1; experiment: as §8
[38] = compound: Nc1nc(-c2ccc(Cc3ccccc3)cc2)cs1; experiment: as §8

B1: Leukotriene A-4 hydrolase (Homo sapiens), P09960 (protein)
chain: MPEIVDTCSLASPASVCRTKHLHLRCSVDFTRRTLTGTAALTVQSQEDNLRSLVLDTKDLTIEKVVINGQEVKYALGERQSYKGSPMEISLPIALSKNQEIVIEISFETSPKSSALQWLTPEQTSGKEHPYLFSQCQAIHCRAILPCQDTPSVKLTYTAEVSVPKELVALMSAIRDGETPDPEDPSRKIYKFIQKVPIPCYLIALVVGALESRQIGPRTLVWSEKEQVEKSAYEFSETESMLKIAEDLGGPYVWGQYDLLVLPPSFPYGGMENPCLTFVTPTLLAGDKSLSNVIAHEISHSWTGNLVTNKTWDHFWLNEGHTVYLERHICGRLFGEKFRHFNALGGWGELQNSVKTFGETHPFTKLVVDLTDIDPDVAYSSVPYEKGFALLFYLEQLLGGPEIFLGFLKAYVEKFSYKSITTDDWKDFLYSYFKDKVDVLNQVDWNAWLYSPGLPPIKPNYDMTLTNACIALSQRWITAKEDDLNSFNATDLKDLSSHQLNEFLAQTLQRAPLPLGHIKRMQEVYNFNAINNSEIRFRWLRLCIQSKWEDAIPLALKMATEQGRMKFTRPLFKDLAAFDKSHDQAVRTYQEHKASMHPVTAMLVGKDLKVD
Protein B1 has a Km [1] of 2.87 mM, a Km [2] of 5.94 mM and a Km [3] of 4.04 mM. It also gave a Km [4] of 6.77 mM, a Km [5] of 1.52 mM and a Km [6] of 2.92 mM. For the same protein, the Km [7] was 10.3 mM, the Km [8] was 4.72 mM and the Km [9] was 6.6 mM. For the same protein, the Km [10] was 1.75 mM, the Km [11] was 3.12 mM and the Km [12] was 10.1 mM. The Km [13] was 4.03 mM, the kcat/Km [14] was 4870 M⁻¹ s⁻¹ and the kcat/Km [15] was 3070 M⁻¹ s⁻¹. The kcat/Km [16] was 6380 M⁻¹ s⁻¹, the kcat/Km [17] was 840 M⁻¹ s⁻¹ and the kcat/Km [18] was 4440 M⁻¹ s⁻¹. For the same protein, the kcat/Km [19] was 6180 M⁻¹ s⁻¹, the kcat/Km [20] was 6060 M⁻¹ s⁻¹ and the kcat/Km [21] was 10100 M⁻¹ s⁻¹. The kcat/Km [22] was 1210 M⁻¹ s⁻¹, the kcat/Km [23] was 7070 M⁻¹ s⁻¹ and the kcat/Km [24] was 6740 M⁻¹ s⁻¹. It also gave a kcat/Km [25] of 8460 M⁻¹ s⁻¹, a kcat/Km [26] of 11300 M⁻¹ s⁻¹ and a kcat/Km [27] of 1390 M⁻¹ s⁻¹. For the same protein, the kcat/Km [28] was 7890 M⁻¹ s⁻¹, the kcat/Km [29] was 6680 M⁻¹ s⁻¹ and the kcat/Km [30] was 15700 M⁻¹ s⁻¹. It also gave a kcat/Km [31] of 11700 M⁻¹ s⁻¹, a kcat/Km [32] of 2030 M⁻¹ s⁻¹ and a kcat/Km [33] of 8940 M⁻¹ s⁻¹. It also gave a kcat/Km [34] of 6680 M⁻¹ s⁻¹, a kcat/Km [35] of 17300 M⁻¹ s⁻¹ and a kcat/Km [36] of 11400 M⁻¹ s⁻¹. For the same protein, the kcat/Km [37] was 2300 M⁻¹ s⁻¹ and the kcat/Km [38] was 9810 M⁻¹ s⁻¹.

Source: ChEMBL document CHEMBL4414660, “Effect of Modifier Structure on the Activation of Leukotriene A4 Hydrolase Aminopeptidase Activity” (J Med Chem, 2019)
